# B1: Tektin-4 (Homo sapiens), Q8WW24 (parent)
# chain: MAQTVPPCELPCKEYDVARNTGAYTSSGLATASFRTSKYLLEEWFQNCYARYHQAFADRDQSERQRHESQQLATETQALAQRTQQDSTRTVGERLQDTHSWKSELQREMEALAAETNLLLAQKQRLERALDATEVPFSITTDNLQCRERREHPNLVRDHVETELLKEAELIRNIQELLKRTIMQAVSQIRLNREHKETCEMDWSDKMEAYNIDETCGRHHSQSTEVQAHPYSTTFQESASTPETRAKFTQDNLCRAQRERLASANLRVLVDCILRDTSEDLRLQCDAVNLAFGRRCEELEDARYKLHHHLHKTLREITDQEHNVAALKQAIKDKEAPLHVAQTRLYLRSHRPNMELCRDAAQFRLLSEVEELNMSLTALREKLLEAEQSLRNLEDIHMSLEKDIAAMTNSLFIDRQKCMAHRTRYPTILQLAGYQ
# partner: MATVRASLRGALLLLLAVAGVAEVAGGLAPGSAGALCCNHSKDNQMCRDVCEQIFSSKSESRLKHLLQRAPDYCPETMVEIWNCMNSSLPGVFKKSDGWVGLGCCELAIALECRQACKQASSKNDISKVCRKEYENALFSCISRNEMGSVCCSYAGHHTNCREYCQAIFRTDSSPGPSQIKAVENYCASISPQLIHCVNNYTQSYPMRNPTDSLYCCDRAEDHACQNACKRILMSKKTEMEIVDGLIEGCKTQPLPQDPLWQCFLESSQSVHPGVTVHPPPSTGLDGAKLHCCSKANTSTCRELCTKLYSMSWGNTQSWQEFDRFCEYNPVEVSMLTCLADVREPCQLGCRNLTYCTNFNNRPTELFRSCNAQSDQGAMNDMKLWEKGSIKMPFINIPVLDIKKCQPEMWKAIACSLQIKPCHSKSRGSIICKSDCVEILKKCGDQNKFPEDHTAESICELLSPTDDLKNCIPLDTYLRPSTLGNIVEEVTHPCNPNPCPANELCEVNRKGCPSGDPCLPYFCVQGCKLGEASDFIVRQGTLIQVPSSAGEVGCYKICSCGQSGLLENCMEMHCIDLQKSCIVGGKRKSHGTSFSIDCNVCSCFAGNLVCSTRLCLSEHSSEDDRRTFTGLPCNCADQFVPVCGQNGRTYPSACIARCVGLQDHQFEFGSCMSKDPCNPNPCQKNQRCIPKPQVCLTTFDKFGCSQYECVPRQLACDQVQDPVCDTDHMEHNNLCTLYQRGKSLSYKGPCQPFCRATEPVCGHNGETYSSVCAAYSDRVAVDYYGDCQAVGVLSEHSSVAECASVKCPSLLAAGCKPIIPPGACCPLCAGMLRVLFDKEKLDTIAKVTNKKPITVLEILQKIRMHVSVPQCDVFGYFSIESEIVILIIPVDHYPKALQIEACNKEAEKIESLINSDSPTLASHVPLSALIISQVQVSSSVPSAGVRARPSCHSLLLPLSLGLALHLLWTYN
# B2: Gem-associated protein 6 (Homo sapiens), Q8WXD5 (parent)
# chain: MSEWMKKGPLEWQDYIYKEVRVTASEKNEYKGWVLTTDPVSANIVLVNFLEDGSMSVTGIMGHAVQTVETMNEGDHRVREKLMHLFTSGDCKAYSPEDLEERKNSLKKWLEKNHIPITEQGDAPRTLCVAGVLTIDPPYGPENCSSSNEIILSRVQDLIEGHLTASQ
# Variants of: B1
# Conditions: with reck_human RECK
row,effect of a mutation on the interaction,Variant
1,with no effect,MAQTVPPCELPCKEYDVARNTGAYTSSGLATASFRTSKYLLEEWFQNCYARYHQAFADRDQSERQRHESQQLATETQALAQRTQQDSTRTVGERLQDTHSWKSELQREMEALAAETNLLLAQKQRLERALDATEVPFSITTDNLQCRERREHPNLVRDHVETELLKEAELIRNIQELLKRTIMQAVSQIRLNREHKETCEMDWSDKMEAYNIDETCGRHHSQSTEVQAHPYSTTFQESASTPETRAKFTQDNLCCAQRERLASANLRVLVDCILRDTSEDLRLQCDAVNLAFGRRCEELEDARYKLHHHLHKTLREITDQEHNVAALKQAIKDKEAPLHVAQTRLYLRSHRPNMELCRDAAQFRLLSEVEELNMSLTALREKLLEAEQSLRNLEDIHMSLEKDIAAMTNSLFIDRQKCMAHRTRYPTILQLAGYQ [R255C]
2,with no effect,MAQTVPPCELPCKEYDVARNTGAYTSSGLATASFRTSKYLLEEWFQNCYARYHQAFADRDQSERQRHESQQLATETQALAQRTQQDSTRTVGERLQDTHSWKSELQREMEALAAETNLLLAQKQRLERALDATEVPFSITTDNLQCRERREHPNLVRDHVETELLKEAELIRNIQELLKRTIMQAVSQIRLNREHKETCEMDWSDKMEAYNIDETCGRHHSQSTEVQAHPYSTTFQESASTPETRAKFTQDNLCRAQRERLASANLRVLVDSILRDTSEDLRLQCDAVNLAFGRRCEELEDARYKLHHHLHKTLREITDQEHNVAALKQAIKDKEAPLHVAQTRLYLRSHRPNMELCRDAAQFRLLSEVEELNMSLTALREKLLEAEQSLRNLEDIHMSLEKDIAAMTNSLFIDRQKCMAHRTRYPTILQLAGYQ [C272S]
3,with no effect,MAQTVPPCELPCKEYDVARNTGAYTSSGLATASFRTSKYLLEEWFQNCYARYHQAFADRDQSERQRHESQQLATETQALAQRTQQDSTRTVGERLQDTHSWKSELQREMEALAAETNLLLAQKQRLERALDATEVPFSITTDNLQCRERREHPNLVRDHVETELLKEAELIRNIQELLKRTIMQAVSQIRLNREHKETCEMDWSDKMEAYNIDETCGRHHSQSTEVQAHPYSTTFQESASTPETRAKFTQDNLCRAQRERLASANLRVLVDCILRDTSEDLRLQCDAVNLAFGRRCEELEDARYKLHHHLHKTLREITDQEHNVAALKQAIKDKEAPLHVAQTRLYLRSHRPNMELCRDAAQFRLLSEVEELNTSLTALREKLLEAEQSLRNLEDIHMSLEKDIAAMTNSLFIDRQKCMAHRTRYPTILQLAGYQ [M374T]
4,with no effect,MAQTVPPCELPCKEYDVARNTGAYTSSGLATASFRTSKYLLEEWFQNCYARYHQAFADRDQSERQRHESQQLATETQALAQRTQQDSTRTVGERLQDTHSWKSELQREMEALAAETNLLLAQKQRLERALDATEVPFSITTDNLQCRERREHPNLVRDHVETELLKEAELIRNIQELLKRTIMQAVSQIRLNREHKETCEMDWSDKMEAYNIDETCGRHHSQSTEVQAHPYSTTFQESASTPETRAKFTQDNLCRAQRERLASANLRVLVDCILRDTSEDLRLQCDAVNLAFGRRCEELEDARYKLHHHLHKTLREITDQEHNVAALKQAIKDKEAPLHVAQTRLYLRSHRPNMELCRDAAQFRLLSEVEELNVSLTALREKLLEAEQSLRNLEDIHMSLEKDIAAMTNSLFIDRQKCMAHRTRYPTILQLAGYQ [M374V]

# Variants of: B2
# Conditions: with gemi7_human GEMIN7, Q9H840
# gemi7_human GEMIN7, Q9H840, sequence (Q9H840 whole entry): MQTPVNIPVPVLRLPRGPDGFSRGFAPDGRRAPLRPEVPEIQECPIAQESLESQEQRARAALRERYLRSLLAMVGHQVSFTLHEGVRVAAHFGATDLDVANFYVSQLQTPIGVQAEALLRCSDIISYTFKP
row,effect of a mutation on the interaction,Variant
1,with no effect,MSEWMKKSPLEWQDYIYKEVRVTASEKNEYKGWVLTTDPVSANIVLVNFLEDGSMSVTGIMGHAVQTVETMNEGDHRVREKLMHLFTSGDCKAYSPEDLEERKNSLKKWLEKNHIPITEQGDAPRTLCVAGVLTIDPPYGPENCSSSNEIILSRVQDLIEGHLTASQ [G8S]
2,with no effect,MSEWMKKGPLEWQDYIYKEVRVTASEKNEYKGWVLTTDPVSANIVLVNFLEDGSMSLTGIMGHAVQTVETMNEGDHRVREKLMHLFTSGDCKAYSPEDLEERKNSLKKWLEKNHIPITEQGDAPRTLCVAGVLTIDPPYGPENCSSSNEIILSRVQDLIEGHLTASQ [V57L]
3,with no effect,MSEWMKKGPLEWQDYIYKEVRVTANEKNEYKGWVLTTDPVSANIVLVNFLEDGSMSVTGIMGHAVQTVETMNEGDHRVREKLMHLFTSGDCKAYSPEDLEERKNSLKKWLEKNHIPITEQGDAPRTLCVAGVLTIDPPYGPENCSSSNEIILSRVQDLIEGHLTASQ [S25N]
4,with no effect,MSEWMKKGPLEWQDYIYKEVRVTASEKNEYKGWVLTTDPVSANIVLVNFLEDGSMSVTGIMGHAVQTVETMNEGDHRVREKLMHLFTSGDGKAYSPEDLEERKNSLKKWLEKNHIPITEQGDAPRTLCVAGVLTIDPPYGPENCSSSNEIILSRVQDLIEGHLTASQ [C91G]

# From IntAct's records for PubMed 31515488
